{
  "source": "patent US10752675B2",
  "about": "“Compounds for treating the remyelination blockade in diseases associated with the expression of HERV-W envelope protein” (GENEURO S.A., priority 2012, dated 2020)",
  "molecules": {"B1": {"name": "GNbAC1: recombinant humanized anti-Env IgG4 monoclonal antibody comprising the CDRs of SEQ ID No. 1 to 6 (antibody, chains of the INN, looked up, V domains shown)", "VH": "QVQLVQSGAEVKKPGSSVKVSCKASGYTFTDYEMHWVRQAPGQGLEWIGAVAPETGGTAYNQKFKGRATITADKSTSTAYMELSSLRSEDTAVYYCTSTVVPFAYWGQGTLVTVSS", "VL": "QIQLTQSPSSLSASVGDRVTITCSASSSVSYMYWYQQKPGKAPKAWIYRTSNLASGVPSRFSGSGSGTDYTLTISSLQPEDFATYYCQQYQSLPLTFGGGTKVEIK"}},
  "system": "human OPC",
  "test": "Expression of CNPase in human OPC in primary culture stimulated by MSRV-Env, with or without GNbAC1 (immunocytochemistry)",
  "format": "cell-based",
  "settings": "for CNPase positive cells, normalized to control condition (buffer = 100%): pooled data",
  "method": "Full length recombinant MSRV-Env was produced and purified by PX′Therapeutics (548 aa; 61.44 KDa) (batch 110719-1). The initial concentration was 0.6 mg/ml (9.76 μM). MSRV-Env Buffer (20 mM Trizma-HCl, pH 7.5, 150 mM NaCl, 1.5% SDS, 10 mM DTT) was provided by PX′Therapeutics. This solution was used as a negative control. GNbAC1 (Batch T96/bAC1/B1; GMP production) was produced and purified by Polymun Scientific, Vienna, Austria. The initial concentration was 10 mg/ml (68.03 μM).\nHuman OPC were stimulated with the different treatments either by coating solutions on the cell culture plate surface before cells seeding or by adding them in the cell culture medium after cells seeding. In any case, labtek 8-wells chamber slides (Nunc) were previously coated with poly-L-lysine (Sigma-Aldrich) overnight at 37° C.\nThe different treatments were diluted in PBS under a sterile laminar flow hood (Fischer Bioblock, France) and the Labtek 8 wells chambers slides (Nunc; 250 μl per well) were coated as follows: • MSRV-Env (1 μg/ml) coated for 2 hours at 37° C. • MSRV-Env Buffer (same dilution than MSRV-Env) coated for 2 hours at 37° C. • MSRV-Env+GNbAC1 A1: MSRV-Env (1 μg/ml) and GNbAC1 (7.35 μg/ml=50 nM) mixture coated for 2 hours at 37° C. • MSRV-Env+GNbAC1 A2: MSRV-Env (1 μg/ml) and GNbAC1 (29.4 μg/ml=200 nM) mixture coated for 2 hours at 37° C. • MSRV-Env+GNbAC1 B1: MSRV-Env (1 μg/ml) coated for 2 hours at 37° C., washed with PBS and subsequently coated with GNbAC1 (7.35 μg/ml=50 nM) for 1 hour at 37° C. • MSRV-Env+GNbAC1 B2: MSRV-Env (1 μg/ml) coated for 2 hours at 37° C., washed with PBS and subsequently coated with GNbAC1 (29.4 μg/ml=200 nM) for 1 hour at 37° C. • GNbAC1 A1 alone: GNbAC1 (7.35 μg/ml=50 nM) coated for 2 hours at 37° C. • GNbAC1 A2 alone: GNbAC1 (29.4 μg/ml=200 nM) coated for 2 hours at 37° C. • GNbAC1 B1 alone: PBS for 2 hours at 37° C., then coated with GNbAC1 (7.35 μg/ml=50 nM) for 1 hour at 37° C. • GNbAC1 B2 alone: PBS for 2 hours at 37° C., then coated with GNbAC1 (29.4 μg/ml=200 nM) for 1 hour at 37° C. • BSA (1 μg/ml) coated for 2 hours at 37° C. • BSA+GNbAC1 A1: BSA (1 μg/ml) and GNbAC1 (7.35 μg/ml=50 nM) mixture coated for 2 hours at 37° C. • BSA+GNbAC1 A2: BSA (1 μg/ml) and GNbAC1 (29.4 μg/ml=200 nM) mixture coated for 2 hours at 37° C. • BSA+GNbAC1 B1: BSA (1 μg/ml) coated for 2 hours at 37° C., washed with PBS and subsequently coated with GNbAC1 (7.35 μg/ml=50 nM) for 1 hour at 37° C. • BSA+GNbAC1 B2: BSA (1 μg/ml) coated for 2 hours at 37° C., washed with PBS and subsequently coated with GNbAC1 (29.4 μg/ml=200 nM) for 1 hour at 37° C. Human Oligodendrocyte Precursor Cells Culture\nThe vial containing the human OPC was placed in a 37° C. water bath and gently agitated by rotation until the content was completely thawed. The cells were gently resuspended with a 1 ml Gilson pipette. Then, they were diluted in complete OPCM, and seeded into the 8-wells labtek culture vessels (7000 cells/cm^2=10000 cells per well) previously coated with poly-L-lysine (0.01%, Sigma) and with (or without) the treatments described above (see 3.2.1.1) under a sterile laminar flow hood (Fischer Bioblock, France). The cultures were incubated at 37° C.; 5% CO2 until subsequent immunocytochemistry experiments. The growth medium was changed the next day to remove the residual DMSO and unattached cells in the cultures treated for 72 hours.\nAfter 3 hours of pre-cultivation (see 3.2.1.2) of the human OPC in the 8-well labtek culture vessels, the cells were incubated at 37° C. for 24 hours or 72 hours in 8-wells labteks (250 μl/well) with the addition of the following solutions: • MSRV-Env Buffer, used as a negative control, added in complete cell culture medium • MSRV-Env added at 3 nM (0.184 μg/ml) in complete cell culture medium • MSRV-Env (3 nM)+GNbAC1 (200 nM; 29.4 μg/ml) mixture added in complete cell culture medium • GNbAC1 (200 nM) alone added in complete cell culture medium Expression of TLR4 and Myelination Markers in OPC In Vitro […]",
  "note": "“Also recorded” adds a separate entry of the source.",
  "data": [
    {"molecule": "B1", "values": [
      {"measurement": "effect on percentage of CNPase positive OPC without MSRV-Env", "setting": "GNbAC1 50 nM or 200 nM coated alone or with BSA 1 μg/ml, 24 hours", "value": "no effect"},
      {"measurement": "effect on the decrease of CNPase positive cells induced by coated MSRV-Env", "setting": "GNbAC1 50 nM or 200 nM, protocols GNbAC1-A and GNbAC1-B, 24 hours", "value": "significantly inhibits; also recorded: fully inhibits MSRV-Env effect"},
      {"measurement": "percentage of CNPase positive cells", "setting": "GNbAC1 200 nM alone in culture medium, 24 hours", "value": "74±2", "unit": "%"},
      {"measurement": "effect on CNPase expression of GNbAC1 alone in culture medium", "setting": "GNbAC1 200 nM alone, 24 hours", "value": "no effect; also recorded: does not show any effect alone"},
      {"measurement": "effect on the inhibition of CNPase expression induced by coated MSRV-Env", "setting": "GNbAC1 200 nM, both protocols, 24 hours, OPC ICC 03", "value": "completely reverses; also recorded: fully inhibits MSRV-Env effect"},
      {"measurement": "percentage of CNPase positive cells", "setting": "GNbAC1-A 50 nM (mixture with MSRV-Env 1 μg/ml coated), 24 hours, OPC ICC 02", "value": "69±4", "unit": "%"},
      {"measurement": "percentage of CNPase positive cells", "setting": "GNbAC1-A 200 nM (mixture with MSRV-Env 1 μg/ml coated), 24 hours, OPC ICC 02", "value": "80±2", "unit": "%"},
      {"measurement": "CNPase positive cells, normalized to control condition (buffer = 100%)", "setting": "GNbAC1-A 200 nM with coated MSRV-Env", "value": "102±1", "unit": "%"},
      {"measurement": "percentage of CNPase positive cells", "setting": "GNbAC1-A 200 nM, coated MSRV-Env 1 μg/ml, 24 hours, OPC ICC 03", "value": "90±2", "unit": "%"},
      {"measurement": "percentage of CNPase positive cells", "setting": "GNbAC1-B 50 nM (coated after MSRV-Env 1 μg/ml), 24 hours, OPC ICC 02", "value": "96±3", "unit": "%"},
      {"measurement": "percentage of CNPase positive cells", "setting": "GNbAC1-B 200 nM (coated after MSRV-Env 1 μg/ml), 24 hours, OPC ICC 02", "value": "76±4", "unit": "%"},
      {"measurement": "CNPase positive cells, normalized to control condition (buffer = 100%)", "setting": "GNbAC1-B 200 nM with coated MSRV-Env", "value": "101±1", "unit": "%"},
      {"measurement": "percentage of CNPase positive cells", "setting": "GNbAC1-B 200 nM, coated MSRV-Env 1 μg/ml, 24 hours, OPC ICC 03", "value": "91±4", "unit": "%"},
      {"measurement": "percentage of CNPase positive cells", "setting": "MSRV-Env 3 nM + GNbAC1 200 nM in culture medium, 24 hours", "value": "76±2", "unit": "%"},
      {"measurement": "effect on the decrease of CNPase expression induced by MSRV-Env in culture medium", "setting": "MSRV-Env 3 nM, GNbAC1 200 nM, 24 hours", "value": "fully antagonizes; also recorded: inhibits completely this effect"}
    ]}
  ]
}
